Legend:
[1] = target: NHERF3 (endogenous, Caco-2/bbe) (UniProt Q5T2W1); test: HA-NHE3 IP, LC-MS/MS spectral counts; settings: reference: NHE3 wild type; sites S719
[2] = target: ezrin (UniProt P15311); test: HA-NHE3 IP, LC-MS/MS spectral counts; settings: reference: NHE3 wild type; sites S719

NHE3 (from UniProt P26432) NHE3-S719A
other: normalized exclusive spectrum count [1]: weaker; reference 4
other: normalized exclusive spectrum count [2]: weaker; reference 8
